The target of test [1] is macaque serum albumin. Nature of the test: ELISA; fit steady_state; antibody as scFv; antigen as not_told; on the surface: target; avidity monovalent. Background: In an ELISA, binding on a coated surface is turned into a signal by an enzyme label.
Test [2] concerns the target human serum albumin. The test is described as above.
The target of test [3] is macaque serum albumin. Nature of the test: SPR; fit kinetic; antibody as scFv; antigen as not_told; on the surface: target; avidity monovalent.
The target in test [4] is rat serum albumin. Described as above.
The target in test [5] is human serum albumin. The test is described as above.

In the case of SON-1210, the Kd in test [1] (pH 6.2) stood at 600 ± 300 nM; in test [1] (pH 7.4) it was 400 ± 200 nM; in test [2] (pH 6.2), 80 ± 10 nM; in test [2] (pH 7.4), 60 ± 30 nM; in test [3] (pH 5.8) it was 900 nM; in test [3] (pH 7.4) it was 2300 ± 400 nM. The Kd in test [4] (pH 5.8) is 5400 ± 1920 nM; in test [4] (pH 7.4), 12900 ± 5100 nM; in test [5] (pH 5.8) it was 500 nM; in test [5] (pH 7.4), 800 nM.

These data come from publication PMC10798159.
